Test results published in the FLAb antibody collection (doi:10.7554/elife.23156).

B1: scFv; the commonest letter at each place (parent)
chain 1: EVKLDETGGGLVQPGRPMKLSCVASGFTFSDYWMNWVRQSPEKGLEWVAQIRNKPYNYETYYSDSVKGRFTISRDDSKSSVYLQMNNLRVEDMGIYYCTGSYYGMDYWGQGTSVTVS
chain 2: DVVMTQTPLSLPVSLGDQASISCRSSQSLVHSNGNTYLRWYLQKPGQSPKVLIYKVSNRFSGVPDRFSGSGSGTDFTLKISRVEAEDLGVYFCSQSTHVPWTFGGGTKLEIK

Assays:
[1] = variants of: B1; assay: Kd (Tite-Seq); settings: with fluorescein; format: scFv 4-4-20, heavy + light
[2] = variants of: B1; assay: yeast surface expression (ratio to wild type); higher = more expressed; settings: format: scFv 4-4-20, heavy + light

Kd [1] [µM]	Variant	yeast surface expression [2]
≥ 10	chain 1 EVKLDETGGGLVQPGRPMKLSCVASGFTFCDYIMNWVRQSPEKGLEWVAQIRNKPYNYETYYSDSVKGRFTISRDDSKSSVYLQMNNLRVEDMGIYYCTGSYYGMDYWGQGTSVTVS chain 2 DVVMTQTPLSLPVSLGDQASISCRSSQSLVHSNGNTYLRWYLQKPGQSPKVLIYKVSNRFSGVPDRFSGSGSGTDFTLKISRVEAEDLGVYFCSQSTHVPWTFGGGTKLEIK [chain 1 S30C W33I]	0.877
0.0146	chain 1 EVKLDETGGGLVQPGRPMKLSCVASGFTFSDYWMNWVRQSPEKGLEWVAQIRNKPYNYETYYSDSVKGRFTISRDDSKSSVYLQMNNLRVEDMGIYYCTGSYFGMDVWGQGTSVTVS chain 2 DVVMTQTPLSLPVSLGDQASISCRSSQSLVHSNGNTYLRWYLQKPGQSPKVLIYKVSNRFSGVPDRFSGSGSGTDFTLKISRVEAEDLGVYFCSQSTHVPWTFGGGTKLEIK [chain 1 Y103F Y107V]	0.817
0.0107	chain 1 EVKLDETGGGLVQPGRPMKLSCVASGFTFSDYWYNWVRQSPEKGLEWVAQIRNKPYNYETYYSDSVKGRFTISRDDSKSSVYLQMNNLRVEDMGIYYCTGSYYGMDYWGQGTSVTVS chain 2 DVVMTQTPLSLPVSLGDQASISCRSSQSLVHSNGNTYLRWYLQKPGQSPKVLIYKVSNRFSGVPDRFSGSGSGTDFTLKISRVEAEDLGVYFCSQSTHVPWTFGGGTKLEIK [chain 1 M34Y]	1.05
≥ 10	chain 1 EVKLDETGGGLVQPGRPMKLSCVASGFTFSLMWMNMVRQSPEKGLEWVAQIRNKPYNYETYYSDSVKGRFTISRDDSKSSVYLQMNNLRVEDMGIYYCTGSYYGMDYWGQGTSVTVS chain 2 DVVMTQTPLSLPVSLGDQASISCRSSQSLVHSNGNTYLRWYLQKPGQSPKVLIYKVSNRFSGVPDRFSGSGSGTDFTLKISRVEAEDLGVYFCSQSTHVPWTFGGGTKLEIK [chain 1 D31L Y32M W36M]	0.543
≥ 10	chain 1 EVKLDETGGGLVQPGRPMKLSCVASGFTFSDYWMNWVRQSPEKGLEWVAQIRNKPYNYETYYSDSVKGRFTISRDDSKSSVYLQMNNLRVEDMGIYYCTVSYYGMDYWGQGTSVTVS chain 2 DVVMTQTPLSLPVSLGDQASISCRSSQSLVHSNGNTYLRWYLQKPGQSPKVLIYKVSNRFSGVPDRFSGSGSGTDFTLKISRVEAEDLGVYFCSQSTHVPWTFGGGTKLEIK [chain 1 G100V]	0.97
≥ 10	chain 1 EVKLDETGGGLVQPGRPMKLSCVASGFTFSDYWMNWVRQSPEKGLEWVAQIRNKPYNYETYYSDSVKGRFTISRDDSKSSVYLQMNNLRVEDMGIYYCTGRYYGMDYQGQGTSVTVS chain 2 DVVMTQTPLSLPVSLGDQASISCRSSQSLVHSNGNTYLRWYLQKPGQSPKVLIYKVSNRFSGVPDRFSGSGSGTDFTLKISRVEAEDLGVYFCSQSTHVPWTFGGGTKLEIK [chain 1 S101R W108Q]	0.346
≥ 10	chain 1 EVKLDETGGGLVQPGRPMKLSCVASGFTDADYWMNWVRQSPEKGLEWVAQIRNKPYNYETYYSDSVKGRFTISRDDSKSSVYLQMNNLRVEDMGIYYCTGSYYGMDYWGQGTSVTVS chain 2 DVVMTQTPLSLPVSLGDQASISCRSSQSLVHSNGNTYLRWYLQKPGQSPKVLIYKVSNRFSGVPDRFSGSGSGTDFTLKISRVEAEDLGVYFCSQSTHVPWTFGGGTKLEIK [chain 1 F29D S30A]	0.941
≥ 10	chain 1 EVKLDETGGGLVQPGRPMKLSCVASGFTFSDYWMNWVRQSPEKGLEWVAQIRNKPYNYETYYSDSVKGRFTISRDDSKSSVYLQMNNLRVEDMGIYYCTGSYYNMDYWYQGTSVTVS chain 2 DVVMTQTPLSLPVSLGDQASISCRSSQSLVHSNGNTYLRWYLQKPGQSPKVLIYKVSNRFSGVPDRFSGSGSGTDFTLKISRVEAEDLGVYFCSQSTHVPWTFGGGTKLEIK [chain 1 G104N G109Y]	0.305
≥ 10	chain 1 EVKLDETGGGLVQPGRPMKLSCVASGFTDSDYCDNWVRQSPEKGLEWVAQIRNKPYNYETYYSDSVKGRFTISRDDSKSSVYLQMNNLRVEDMGIYYCTGSYYGMDYWGQGTSVTVS chain 2 DVVMTQTPLSLPVSLGDQASISCRSSQSLVHSNGNTYLRWYLQKPGQSPKVLIYKVSNRFSGVPDRFSGSGSGTDFTLKISRVEAEDLGVYFCSQSTHVPWTFGGGTKLEIK [chain 1 F29D W33C M34D]	0.403
≥ 10	chain 1 EVKLDETGGGLVQPGRPMKLSCVASGFTASDYWSNWVRQSPEKGLEWVAQIRNKPYNYETYYSDSVKGRFTISRDDSKSSVYLQMNNLRVEDMGIYYCTGSYYGMDYWGQGTSVTVS chain 2 DVVMTQTPLSLPVSLGDQASISCRSSQSLVHSNGNTYLRWYLQKPGQSPKVLIYKVSNRFSGVPDRFSGSGSGTDFTLKISRVEAEDLGVYFCSQSTHVPWTFGGGTKLEIK [chain 1 F29A M34S]	0.612
5.37	chain 1 EVKLDETGGGLVQPGRPMKLSCVASGFTWSGYWMNWVRQSPEKGLEWVAQIRNKPYNYETYYSDSVKGRFTISRDDSKSSVYLQMNNLRVEDMGIYYCTGSYYGMDYWGQGTSVTVS chain 2 DVVMTQTPLSLPVSLGDQASISCRSSQSLVHSNGNTYLRWYLQKPGQSPKVLIYKVSNRFSGVPDRFSGSGSGTDFTLKISRVEAEDLGVYFCSQSTHVPWTFGGGTKLEIK [chain 1 F29W D31G]	0.567
≥ 10	chain 1 EVKLDETGGGLVQPGRPMKLSCVASGFTFSDYWMNWVRQSPEKGLEWVAQIRNKPYNYETYYSDSVKGRFTISRDDSKSSVYLQMNNLRVEDMGIYYCTGPYRGMDYWGQGTSVTVS chain 2 DVVMTQTPLSLPVSLGDQASISCRSSQSLVHSNGNTYLRWYLQKPGQSPKVLIYKVSNRFSGVPDRFSGSGSGTDFTLKISRVEAEDLGVYFCSQSTHVPWTFGGGTKLEIK [chain 1 S101P Y103R]	0.277
